This note sets out measurements from PMC4562236.

Series [1] relates to T1, His-ArsR (Bacillus sp. CDB3), ORF:1234e343.
T1 sequence: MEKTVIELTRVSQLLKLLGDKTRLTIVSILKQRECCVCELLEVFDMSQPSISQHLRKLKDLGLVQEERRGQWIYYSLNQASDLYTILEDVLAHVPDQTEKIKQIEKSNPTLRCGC
Briefly: EMSA. To be noted: 10 mM Tris-HCl pH 7.6, 80 mM KCl, 0.2 mM EDTA, 0.2 mM DTT, 10% glycerol, 0.75 µM BSA, 30 µL, on ice 30 min; 6% native acrylamide gel in TBE pH 8.3. In general terms: Mobility shift assays separate free from complexed probe on a gel.

Series [2] has as its system T2, His-ArsD (Bacillus sp. CDB3), ORF:bd8c364d.
T2 sequence: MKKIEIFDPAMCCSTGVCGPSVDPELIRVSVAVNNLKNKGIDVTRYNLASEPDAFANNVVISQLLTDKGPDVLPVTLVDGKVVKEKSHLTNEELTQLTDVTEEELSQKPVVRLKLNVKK
Briefly: EMSA. As to conditions: 10 mM Tris-HCl pH 7.6, 80 mM KCl, 0.2 mM EDTA, 0.2 mM DTT, 10% glycerol, 0.75 µM BSA, 30 µL, on ice 30 min; 6% native acrylamide gel in TBE pH 8.3.

In the case of “TGAGACTGCTATGAAAGAAAACGGTGTTTCAACATTACGTTTTACATTTGATGGTGCTGGATGCTGTGGCCCTAGTTACGGTATTAATTTAGGTGAAGCACAAGAAAATGATGTCACAGAAACAGTCTAGAC (double strand) [proN]”, the binding entry in series [1] was “no binding”. As for “TTCAGTTGAATATATAAGCGGTTAATTATATACTTATTTCAAGAGGGAGAGAAAATTAAATATGAATCCATTTAATGAATATTACGTTTAATTTTTACTCAACATATAAGTATATGCTTATGCAATTATGAAAAGGAGGTATAGATATGGCTCTAGATA (double strand) [proR]”, the values for the binding entry in series [2] and in series [1] were “no binding” and “binds”, respectively.
